Test results: patent US20220135694A1, “NOVEL CD40-BINDING ANTIBODIES” (LAVA THERAPEUTICS B.V., priority 2019, published 2022)

B1: V19S76K-5C8 (bispecific antibody)
chain: QVQLQESGGGLVQAGGSLRLSCAASGRTFGRSAMGWFRQAPGKEREFVAAIGTRGGSTKYADSVKGRFTISTDNAKNTVYLQMDSLKPEDTAVYRCAVRGPGYPSAAIFQDEYHYWGQGTQVTVSSGGGGSEVQLVESGGGLVQAGGSLRLSCAASGRPFSNYAMGWFRQAPGKEREFVAAISWSGGSTSYADSVKGRFTISRDNAKNTVYLQMNSPKPEDTAIYYCAAQFSGADYGFGRLGIRGYEYDYWGQGTQVTVSS
notes: also called bispecific anti-CD40-anti-Vγ9Vδ2 TCR VHH V19S76K-5C8; bsVHH
B2: V19t: monovalent anti-CD40 VHH V19 with C-terminal Myc- and His6-tag, SEQ ID NO:15 (protein)
VHH: QVQLQESGGGLVQAGGSLRLSCAASGRTFGRSAMGWFRQAPGKEREFVAAIGTRGGSTKYADSVKGRFTISTDNASNTVYLQMDSLKPEDTAVYRCAVRGPGYPSAAIFQDEYHYWGQGTQVTVSSGLEGHSDHMEQKLISEEDLNRISDHHHHHH
modifications: antibody sequence
B3: V15t: monovalent anti-CD40 VHH V15 with C-terminal Myc- and His6-tag, SEQ ID NO:16 (protein)
VHH: EVQLQESGGGLVQAGGSLRLSCVTSGSAFSSDTMGWFRQAPGKQRELVASISSRGVREYADSVKGRFTISRDNAKNTVYLQMNSLQPEDTAVYYCNRGALGLPGYRPYNNWGQGTQVTVSSGLEGHSDHMEQKLISEEDLNRISDHHHHHH
modifications: antibody sequence

Experiments:
human CD40 [1] = biological target: T1, human CD40 (human, UniProt P25942 21-277); assay: flow cytometry, CD40+ CII cell line (n=3), non-linear regression curve
T1 construct: In the assays it stood on CD40-transfected HEK293T cells, primary CLL cells or the CLL-derived CII cell line; also called tumor necrosis factor receptor superfamily member 5; TNR5_HUMAN
T1 sequence (P25942 21-277 limits assumed): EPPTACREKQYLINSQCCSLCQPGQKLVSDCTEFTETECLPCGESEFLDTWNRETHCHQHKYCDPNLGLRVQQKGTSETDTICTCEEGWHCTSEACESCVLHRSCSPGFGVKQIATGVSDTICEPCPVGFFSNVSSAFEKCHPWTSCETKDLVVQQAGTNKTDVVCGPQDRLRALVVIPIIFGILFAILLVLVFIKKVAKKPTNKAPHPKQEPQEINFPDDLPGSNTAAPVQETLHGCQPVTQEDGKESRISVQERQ
Description: (§1) FIG. 6: V19S76K-5C8 binds to CD40⁺ and Vγ9Vδ2+ cells. Cell lines were incubated with V19S76K-5C8 or medium control and bound bsVHH was detected using anti-llama IgG heavy and light chain antibodies by flow cytometry. (A) Bar plots and (B) non-linear regression analysis of V19S76K-5C8 binding to healthy donor-derived Vγ9Vδ2-T cell lines (n=3). (C) Bar plots and (D) non-linear regression analysis of V19S76K-5C8 binding to […] CD40⁺ CII cell line (n=3). […] (A, C: repeated-measures one-way ANOVA followed by Dunnett's post hoc test compared to condition without bsVHH; B, D: non-linear regression analysis).

human CD40 [2] = biological target: T1, human CD40; assay: flow cytometry on CD40+ CII cells, anti-llama IgG detection, non-linear regression
Description: as §1

[3] = biological target: human Vγ9Vδ2 T cell receptor (human) (UniProt Q99603); assay: flow cytometry, healthy donor-derived Vγ9Vδ2-T cell lines (n=3), non-linear regression curve
[4] = biological target: human Vγ9Vδ2 T cell receptor (human) (UniProt Q99603); assay: flow cytometry on healthy donor-derived Vγ9Vδ2-T cell lines, anti-llama IgG detection, non-linear regression
primary CLL cells = assay: Monovalent VHH binding to primary CLL cells, flow cytometry; set-up: species or system human; conditions: n=5 samples; FIG. 2B
Description: Peripheral blood (PB) mononuclear cells (PBMCs, ≥95% CD5^+CD19^+) were isolated from PB samples from untreated CLL patients and cryopreserved as described previously (Hallaert et al. (2008), Blood 112(13):5141-9). The study was approved by the medical ethics committee at the Amsterdam UMC. Written informed consent from all subjects was obtained. Thawed cells were kept in Iscove's Modified Dulbecco's Medium (IMDM; 12440-053, Thermo Fisher Scientific), supplemented with 10% fetal calf serum (F7524, Merck), 200 mM L-glutamine (25030-123, Thermo Fisher Scientific), 0.05 mM β-mercapto-ethanol (M6250, Merck) and 10.000 U/mL penicillin/streptomycin (15140-122, Thermo Fisher Scientific), hereafter referred to as complete IMDM.
CD40 expression on primary CLL cells was confirmed and VHH binding was tested as described in Example 2.

CD40 [5] = biological target: T2, CD40 (Homo sapiens, UniProt P25942); assay: CD40 antagonistic activity in primary CLL cells: pre-incubation, then rmCD40L for 48 h; format: cell-based; conditions: 30 min pre-incubation, then rmCD40L 100 ng/mL for 48 hours; FIG. 4A-C
T2 construct: Primary chronic lymphocytic leukemia (CLL) cells express CD40 on the cell surface; endogenous in cells; host or cells: primary CLL PBMCs from untreated CLL patients
T2 sequence (P25942 21-277): as the sequence (P25942 21-277 limits assumed) above
Description: PBMCs (≥90% CD5^+CD19^+) from untreated CLL patients were obtained and cryopreserved as described in […]. Thawed cells were kept in complete IMDM.
To test whether the VHH antagonizes CD40 stimulation, primary CLL PBMCs were pre-incubated with VHH or medium control for 30 minutes at 37° C. and subsequently cultured for 48 hours in the presence of rmCD40L (100 ng/mL).
After 48 hours, cells were analyzed by flow cytometry as described in Example 4.
To assess whether binding of the VHH has antagonistic effects, primary CLL PBMCs were pre-incubated with V19S76K-5C8 or medium control and then cultured with rmCD40L for 48 hours and analyzed by flow cytometry as described in Example 5.

[6] = biological target: T3, human CD40 (CD40-transfected HEK293T cells) (Homo sapiens, UniProt P25942); assay: Monovalent VHH binding to CD40-transfected HEK293T cells, Myc-tag flow cytometry; conditions: for average geometric mean fluorescence intensity (Myc-tag): CD40-transfected HEK293T cells, 2 experiments; for binding to CD40-expressing cells: detection of the Myc tag, FIG. 1B
T3 construct: expressed in transfected cells; host or cells: HEK293T
T3 sequence (P25942 21-277): as the sequence (P25942 21-277 limits assumed) above
Description: The embryonic kidney cell line HEK293T, either wildtype (WT) or transfected with human CD40, was grown in Dulbecco's Modified Eagle Medium (41965-039, Thermo Fisher Scientific, Waltham, Mass., USA), supplemented with 10% fetal calf serum (F7524, Merck, Kenilworth, N.J., USA), 200 mM L-glutamine (25030-123, Thermo Fisher Scientific), 0.05 mM β-mercapto-ethanol (M6250, Merck) and 10,000 U/mL penicillin/streptomycin (15140-122, Thermo Fisher Scientific), hereafter referred to as complete DMEM.
CD40 expression on CD40-transfected cells was confirmed by incubation with a PE-conjugated anti-CD40 antibody (IM1936U, Beckman Coulter, Brea, Calif., USA) for 20 minutes at 4° C. […] Bound VHH was detected by sequential incubation with mouse-anti-Myc tag (05-274, Merck) and AF488-conjugated goat-anti-mouse (A-11001, Thermo Fisher Scientific) antibodies for 20 minutes at 4° C.
Samples were measured on a FACSCanto cytometer (BD Biosciences, Franklin Lakes, N.J., USA) and analyzed with Flowjo MacV10.

CD40 [7] = biological target: T2, CD40; assay: CD40 agonistic activity in primary CLL cells, 48 h, flow cytometry; format: cell-based; conditions: various concentrations, FIG. 3A-C
Description: PBMCs (≥90% CD5^+CD19^+) from untreated CLL patients were obtained and cryopreserved as described in Example 3. Thawed cells were kept in complete IMDM.
To assess whether binding of the VHH to CD40 has agonistic effects, primary CLL PBMCs were cultured for 48 hours in the presence of VHH, medium control or recombinant multimeric CD40 ligand (rmCD40L; 100 ng/mL, Bioconnect).
After 48 hours, cells were harvested, washed and incubated with AF700-conjugated anti-CD19 (557921), FITC-conjugated anti-CD80 (6109965), APC-conjugated anti-CD86 (555660, all BD Biosciences), PE-conjugated anti-CD5 (12-0059-42, Thermo Fisher Scientific) and PECy7-conjugated anti-CD95 (305621, Biolegend, San Diego, Calif., USA) antibodies for 20 minutes at 4° C. Alternatively, after 48 hours, cells were harvested and viability was measured using Mitotracker Orange (25-minute incubation at 37° C.) and To-pro-3 (10-minute incubation at room temperature; both Thermo Fisher Scientific). Samples were measured on a FACSCanto cytometer (BD Biosciences) and analyzed with Flowjo MacV10.
To assess whether binding of the VHH has agonistic effects, primary CLL PBMCs were cultured with the indicated concentrations of V19S76K-5C8, medium control or rmCD40L for 48 hours and analyzed by flow cytometry as described in Example 4.

Molecule | EC50 (read off the curve) (human CD40 [1]) | Kd (human CD40 [2]) | EC50 (read off the curve) [3] | Kd [4] | binding to primary CLL cells (primary CLL cells) | prevention of CD40L-induced CD40 stimulation (viability, CD86 and CD95 expression) (CD40 [5]) | average geometric mean fluorescence intensity (Myc-tag) ([6]; VHH concentration 1 pM) | average geometric mean fluorescence intensity (Myc-tag) ([6]; VHH concentration 10 pM) | average geometric mean fluorescence intensity (Myc-tag) ([6]; VHH concentration 100 pM) | average geometric mean fluorescence intensity (Myc-tag) ([6]; VHH concentration 1 nM) | average geometric mean fluorescence intensity (Myc-tag) ([6]; VHH concentration 10 nM) | average geometric mean fluorescence intensity (Myc-tag) ([6]; VHH concentration 100 nM) | binding to CD40-expressing cells [6] | CD40 stimulation (viability, CD86 and CD95 expression) (CD40 [7])
B1 | ~10 nM | 10.9 nM | 1 nM | 1.2 nM | – | – | – | – | – | – | – | – | – | –
B2 | – | – | – | – | higher binding intensity than V12t | prevented CD40 stimulation in a dose-dependent manner | 5031 | 4938 | 5538 | 6783 | 9101 | 16175 | bound to the CD40-expressing cells | did not induce any of these effects
B3 | – | – | – | – | higher binding intensity than V12t | prevented CD40 stimulation in a dose-dependent manner | – | – | – | – | – | – | bound to the CD40-expressing cells | did not induce any of these effects
